Data: patent publication US20250093368A1 (BEIJING INSTITUTE OF HEART LUNG AND BLOOD VESSEL DISEASES, published 2025)

B9: Flag tag - S100A8 (expression product from plasmid 1; also the S100A8 chain co-expressed from plasmid 5) (other)
chain: DYKDDDDKLTELEKALNSIIDVYHKYSLIKGNFHAVYRDDLKKLLETECPQYIRKKGADVWFKELDINTDGAVNFQEFLILVIKMGVAAHKKSHEESHKE

Legend:
[1] = target: T1, commercial S100A8/S100A9 Heterodimer (R&D) heterodimer protein (UniProt P05109 1-93; P06702 2-114, limits assumed); test: ELISA, LEM supernatant, heterodimer coated at 1 µg/mL
T1 construct: Bought, purity >95%; also called S100A8/S100A9 heterodimer protein standard; commercial S100A8/S100A9 protein
T1 sequence (looked up) 1: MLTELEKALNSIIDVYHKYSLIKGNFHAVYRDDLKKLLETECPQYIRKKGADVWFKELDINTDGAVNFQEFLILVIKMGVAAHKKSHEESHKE
T1 sequence (looked up) 2: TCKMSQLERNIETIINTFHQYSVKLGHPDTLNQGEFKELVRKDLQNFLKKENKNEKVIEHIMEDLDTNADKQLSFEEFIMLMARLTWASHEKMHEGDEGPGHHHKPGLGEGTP
Source text: The ELISA reaction conditions were as follows: [0196]

[2] = target: T2, commercial S100A8 protein (ab167749, Recombinant human MRP8 protein) (human, UniProt P05109 1-93); test: ELISA, B cell supernatant on commercial S100A8 protein ab167749; positive = OD greater than 0.7
T2 construct: Bought; also called commercial S100A8 antigen
T2 sequence (looked up): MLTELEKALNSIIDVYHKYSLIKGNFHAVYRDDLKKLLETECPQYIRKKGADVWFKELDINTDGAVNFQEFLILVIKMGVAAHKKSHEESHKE

[3] = target: T3, S100A8 protein in patient sera (human, UniProt P05109 1-93); test: Dot Blot, B cell supernatant on patient sera
T3 construct: Native serum protein; also called S100A8 signal in patient serum
T3 sequence (looked up): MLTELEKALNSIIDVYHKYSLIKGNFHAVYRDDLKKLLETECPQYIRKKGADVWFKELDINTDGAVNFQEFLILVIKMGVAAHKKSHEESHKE

[4] = target: T4, S100A8 recombinant protein (pET-28a-S100A8 (1-93 aa) expressed protein) (human, UniProt P05109 1-93); test: ELISA, B cell supernatant on expressed S100A8 antigen; positive = OD greater than 0.7
T4 construct: Immunogen and ELISA screening antigen, expressed from pET-28a; also called S100A8 antigen; expressed S100A8 antigen
T4 sequence: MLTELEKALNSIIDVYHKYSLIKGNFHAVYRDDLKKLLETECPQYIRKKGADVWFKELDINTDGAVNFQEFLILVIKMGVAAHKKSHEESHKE

[5] = target: T5, S100A8/S100A9-1 recombinant protein (expression product from plasmid 5) (human, UniProt P05109 2-93; P06702 1-114); test: sandwich ELISA, 5H10 coated at 0.5 µg/mL, 7C4-HRP detecting
T5 construct: also called S100A8/S100A9-1 heterodimer; S100A8/S100A9-1 (S100A9 mutant) heterodimer; not shown: T7-tag
T5 chain 1: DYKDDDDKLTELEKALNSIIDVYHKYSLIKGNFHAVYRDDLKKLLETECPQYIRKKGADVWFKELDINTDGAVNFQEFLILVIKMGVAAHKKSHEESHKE
T5 chain 2: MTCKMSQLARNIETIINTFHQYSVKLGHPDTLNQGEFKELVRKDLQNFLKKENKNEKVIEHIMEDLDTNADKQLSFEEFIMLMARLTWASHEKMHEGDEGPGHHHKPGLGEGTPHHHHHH
Method: (1) Experimental steps: [0270] standard: commercial R&D S100A8/S100A9 heterodimer protein, 2-fold gradient dilution from 40 ng/mL, with a total of 8 concentrations, lower limit of 0.625 ng, and boundary value of 40-0.625; [0271] reaction system: 96-well plate reaction system, laboratory buffer; [0272] coating antibody concentration: 5H10 (anti-S100A8 antibody), 0.5 μg/mL; [0273] detecting antibody concentration: 7C4-HRP (directly labeled), antibody dilution ratio of 1:20000 or 1:10000; [0274] TMB development: dilution ratio being 1:2, and color development time being 15 min.

[6] = target: T6, S100A9 recombinant protein (pET-28a-S100A9 (1-114 aa) expressed protein) (human, UniProt P06702 1-114); test: ELISA, LEM supernatant, antigen coated at 1 µg/mL
T6 construct: Immunogen and ELISA screening antigen, expressed from pET-28a; also called S100A9 antigen; expressed S100A9 antigen
T6 sequence: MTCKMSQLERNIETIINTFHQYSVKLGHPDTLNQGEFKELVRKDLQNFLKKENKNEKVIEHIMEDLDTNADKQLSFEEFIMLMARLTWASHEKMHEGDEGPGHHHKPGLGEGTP
Source text: (§1) The ELISA reaction conditions were as follows: [0207]

[7] = target: T7, commercial S100A9 protein (ab95909, Recombinant Human S100A9 protein) (human, UniProt P06702 1-114); test: ELISA, LEM supernatant, antigen coated at 1 µg/mL
T7 construct: Bought; also called commercial A9 protein
T7 sequence (looked up): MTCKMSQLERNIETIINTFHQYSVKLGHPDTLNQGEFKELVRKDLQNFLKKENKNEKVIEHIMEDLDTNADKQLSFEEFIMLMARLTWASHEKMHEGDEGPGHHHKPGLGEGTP
Source text: as §1

[8] = target: T8, S100A9 protein in patient sera (human, UniProt P06702 2-114, limits assumed); test: Dot Blot, B cell supernatant on patient sera
T8 construct: Native serum protein; also called S100A9 signal in patient serum
T8 sequence (looked up): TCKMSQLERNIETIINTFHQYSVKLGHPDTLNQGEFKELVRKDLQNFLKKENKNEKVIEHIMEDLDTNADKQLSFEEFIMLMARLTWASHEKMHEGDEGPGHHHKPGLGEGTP

[9] = target: the molecule itself; test: SDS-PAGE of His-purified protein, homodimer band at 34 KDa
Source text: (§2) (8) SDS-PAGE gel electrophoresis: the supernatant obtained after lysis and the purified protein were mixed with 6×Loading Buffer according to a volume ratio of 5:1 for sample preparation; and the prepared sample was subjected to SDS-PAGE gel electrophoresis together with bovine serum albumin (BSA, purchased from BioFroxx, Cat. No. 4240GR025) and Marker, wherein plasmid 1 and mutant plasmid 1 were the final samples purified by Flag-Tag, plasmid 2 and mutant plasmid 2 were the final samples purified by His-Tag, and plasmid 3 and plasmid 4 were the final samples purified by His-Tag and Flag-Tag. […] In panel C, the “Supernatant” refers to the supernatant obtained after centrifugation during first lysis, and the “Supernatant 2” refers to the supernatant obtained by performing second lysis treatment on the precipitate obtained after first lysis and centrifugation and then performing centrifugation.

[10] = target: B9; test: co-expression, purification by His-Tag then Flag-Tag, SDS-PAGE
[11] = target: the molecule itself; test: SDS-PAGE of protein purified by His-Tag and Flag-Tag
Source text: as §2
Except for the synthesized gene of interest (gene of interest S100A8+S100A9-1 in plasmid 5), the construction and expression and purification method for plasmid 5 was the same as that for plasmids 3 and 4, which was not described in detail herein.

[12] = target: the molecule itself; test: SDS-PAGE of His-purified protein
Source text: as §2

[13] = target: the molecule itself; test: SDS-PAGE of Flag-purified protein, homodimer band at 30 KDa
Source text: as §2

Measured: binding result

B1: 2C2 (antibody, V domains shown)
VH: QSVEESGGRLVTPGGSLTLTCTVSGFSLSSYFMIWVRQAPGKGLEYIGIHSDTGSTDYASWAKGRFTISKTSTTVDLKMTSLTASDTATYFCARDGGNDAYYYFNIWGPGTLVTVSS
VL: AYDMTQTPASVEVAVGGTVTINCQASQSISTALAWYQQKPGQPPKPLIYEASKLASGVPSRFKGSGSGTEFILTISDLECADAATYYCQQGASARNIASNVFGGGTEVVVKG
notes: Rabbit monoclonal IgG against S100A8 (rabbit E15229); Biotin-labeled when used as detecting antibody
binds: [1] | [2] | [3] | [4]

B2: 3D8 (antibody, V domains shown)
VH: QSVEESGGRLVTPGTPLTLTCTVSGIDLSTNPMGWVRQAPGKGLEWIGIIFADTGEIYYATWAKGRFTISETSSTTVDLKITSPTAEDTATYFCVRGSPSSANIWGPGTLVTVSS
VL: AAVLTQTPSPVSAAVGGTVTISCQSSQSVYNNNWLGWYQQKPGQPPKLLIYRASTLASGVPSRFKGSGSGTQFTFTISDLECDDAATYYCAGTYRRNSDNGFGGGTEVVVKG
notes: as for B1
binds: [1] | [2] | [3] | [4]

B3: 5H10 (antibody, V domains shown)
VH: QSVEESGGRLVTPGTPLTLTCTVSGIDLSTNPMGWVRQAPGKGLEWIGIIFADTGEIYYATWARGRFTISETSSTTVDLKITSPTAEDTATYFCVRGSPSSANIWGPGTLVTVSS
VL: AAVLTQTPSPVSAAVGGTVTISCQSSQSVYNNNWLGWYQQKPGQPPKLLIYRASTLASGVSSRFKGSGSGTQFTLTISGLECDDAATYYCAGTYRRNSDNGFGGGTEVVVKG
notes: Rabbit monoclonal IgG against S100A8 (rabbit E15229); Tested as B cell supernatant, LEM supernatant and purified recombinant antibody; biotin-labeled when used as detecting antibody; also called anti-S100A8 monoclonal antibody 5H10
binds: [1] | [5] | [2] | [3] | [4]

B4: 7C4 (antibody, V domains shown)
VH: QSVEESGGRLVTPGTPLTLTCTVSGIDLSSGWMNWVRQAPGGGLEWIGTINSGGSPYYARWAKGRFTLSTTSTTVDLKITSPTTEDTATYFCGSRDFWGPGTLVTVSS
VL: AQVLTQTASPVSAAVGGTVTINCQASQSVYNNNYLAWYQQKPGQPPKRLIYAASNLASGVSSRFKGSGSGTQFTLTISDLQCDDAATYYCSGGYDCDSADCSVFGGGTEVVVKG
notes: Rabbit monoclonal IgG against S100A9 (rabbit E16675); also called 7C4-HRP; 7C4 (biotin-labeled)
binds: [6] | [7] | [1] | [5] | [8]

B5: 8A11 (antibody, V domains shown)
VH: QSVEESGGRLVTPGTPLTLTCTVSGIDLSSGWMNWVRQAPGKGLEWIGVINSYGRTYYARWAKGRFTISITSTTVDLKITSPTTEDTATYFCGSRDFWGPGTLVTVSS
VL: AQVLTQTASPVSAAVGSTVTINCQASQSVYKNNYLAWYQQKPGQPPKRLIYSASTLASGVSSRFKGSGSGTQFTLTISDVQCDDAATYYCGGGYDCDSADCSVFGGGTEVVVKG
notes: Rabbit monoclonal IgG against S100A9 (rabbit E16675); Biotin-labeled when used as detecting antibody; also called 8A11 (biotin-labeled)
binds: [6] | [7] | [1] | [8]

B6: S100A9 - 6 x His tag (expression product from plasmid 2) (other)
chain: MTCKMSQLERNIETIINTFHQYSVKLGHPDTLNQGEFKELVRKDLQNFLKKENKNEKVIEHIMEDLDTNADKQLSFEEFIMLMARLTWASHEKMHEGDEGPGHHHKPGLGEGTPHHHHHH
notes: pET-28a, BamHI/HindIII
binds: [9]

B7: T7-tag - S100A9-1 - 6 x His tag (S100A9-1 chain co-expressed from plasmid 4 and plasmid 5) (other)
chain: MTCKMSQLARNIETIINTFHQYSVKLGHPDTLNQGEFKELVRKDLQNFLKKENKNEKVIEHIMEDLDTNADKQLSFEEFIMLMARLTWASHEKMHEGDEGPGHHHKPGLGEGTPHHHHHH
notes: Single chain of the co-expression constructs, written as a molecule of its own for the dimer formation results; also called mutant S100A9; not shown: T7-tag
binds: [10] | [11]

B8: S100A9-1 (E9A) - 6 x His tag (expression product from mutant plasmid 2) (other)
chain: MTCKMSQLARNIETIINTFHQYSVKLGHPDTLNQGEFKELVRKDLQNFLKKENKNEKVIEHIMEDLDTNADKQLSFEEFIMLMARLTWASHEKMHEGDEGPGHHHKPGLGEGTPHHHHHH
notes: pET-28a, BamHI/HindIII; also called mutant S100A9
binds: [12]

B9
binds: [13]
